Measurements from patent US20180186871A1 (SINGAPORE HEALTH SERVICES PTE, published 2018).

T1: human IL-11 (human, UniProt P20809 22-199)
T1 sequence (looked up): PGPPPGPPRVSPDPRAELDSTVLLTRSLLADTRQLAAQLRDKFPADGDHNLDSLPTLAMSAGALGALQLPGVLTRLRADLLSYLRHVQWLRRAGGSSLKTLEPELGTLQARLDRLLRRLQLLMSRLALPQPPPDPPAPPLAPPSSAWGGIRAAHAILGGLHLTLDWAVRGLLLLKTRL

B1: YU112-E07 (scFv)
scFv: QVQLVQSGGGVVQPGRSLRLSCAASGFTFGSYGMHWVRQAPGKGLEWVAVISYDGSNKYYADSVKGRFTISRDNSKNTLYLQMNSLRAEDTAVYYCAKGSYYFDYWGQGTLVTVSSGSASAPKLEEGEFSEARVEIVMTQSPDSLAVSLGERATINCKSSQSVNSAYLAWYQHKPGQPPRLLIYGASRRVTGVPDRFSGSGSGTDFTLTISSLQPEDFATYYCQQSYSDPRWTFGQGTKVEIK
B2: YU100-B08 (scFv)
scFv: EVQLVQSGGGVVQPGRSLRLSCAASGFTFSSYGMHWVRQAPGKGLEWVAVISYDGSNKYYADSVKGRFTISRDNSKNTLYLQMNSLRAEDTAVYYCAKIGATDPLDYWGQGTLVTVSSGSASAPKLEEGEFSEARVQSALTQPASVSGSPGQSITISCTGTSSDVGGYNYVSWYQQHPGKVPRLLIYDVSNRPSGVSTRFSGSKSGNTASLTISGLQGEDEAEYYCSSFTSSTTWVFGGGTKLTVL
B3: YU100-E06 (scFv)
scFv: QVQLVESGGGVVQPGRSLRLSCAASGFTFSSYGMHWVRQAPGKGLEWVAVISYDGSNKYYADSVKGRFTISRDNSKNTLYLQMNSLRAEDTAVYYCAKIGATDPLDYWGQGTLVTVSSGSASAPKLEEGEFSEARVQSALTQPASVSGFPEQSITISCTGTSSDVGGYDYVSWYQQHPGKAPKLMIYDVTNRPSGVSNRFSGSKSGNTASLTISGLQPEDEADYYCSSYTSNTTWVFGGGTKLTVLRQPKAAPSVTLFPPSS
B4: YU100-A10 (scFv)
scFv: EVQLVESGGGVVQPGRSLRLSCAASGFTFSSYGMHWVRQAPGKGLEWVAVISYDGSNKYYADSVKGRFTISRDNSKNTLYLQMNSLRAEDTAVYYCAKIGATDPLDYWGQGTLVTVSSGSASAPKLEEGEFSEARVLPVLTQPASVSGSPGQSITISCTGTSSDVGAYNYVSWYQQHPGKAPELMIYDVSNRPSGVSNRFSGSKSGNTASLTISGLQPEDEADYYCSSFTTSIAWVFGGGTKLTVL
B5: YU100-E01 (scFv)
scFv: QVQLQQSGGGVVQPGRSLRLSCAASGFTFSSYGMHWVRQAPGKGLEWVAVISYDGSNKYYADSVKGRFTISRDNSKNTLYLQMNSLRAEDTAVYYCAKIGATDPLDYWGQGTLVTVSSGSASAPKLEEGEFSEARVQSALTQPASVSGSPGQSITISCTGTSNDIGAYNYVSWYQQHPGKAPKLLIYDVNNRPSGVSDRFSGSKSGNTASLTISGLQAEDEADYYCCSYAGSYSWVFGGGTKLTVLGQPKANPTVTLFPPSS
B6: YU100-E05 (scFv)
scFv: EVQLVQSGGGVVQPGRSLRLSCAASGFTFSSYGMHWVRQAPGKGLEWVAVISYDGSNKYYADSVKGRFTISRDNSKNTLYLQMNSLRAEDTAVYYCAKIGATDPLDYWGQGTLVTVSSGSASAPKLEEGEFSEARVQAVLTQPRSVSGSPGQSVTISCTGTSSDVGGYNYVSWYQQHPGKAPKLMIYDVSKRPSGVPDRFSGSKSGNTASLTISGLQAEDEADYYCCSYAGSYSWVFGGGTKLTVLGQPKAAPSVTLFPPSS
B7: YU100-D11 (scFv)
scFv: QVQLVQSGGGVVQPGRSLRLSCAASGFTFSSYGMHWVRQAPGKGLEWVAVISYDGSNKYYADSVKGRFTISRDNSKNTLYLQMNSLRAEDTAVYYCAKIGATDPLDYWGQGTLVTVSSGSASAPKLEEGEFSEARVQSALTQPRSVSGSPGQSVTISCTGTSSNVGGYNYVSWYQQHPGKAPKLMIYDVSKRPSGVPDRFSGSKSGNTASLTISGLQAEDEANYYCASYAGNYNWVFGGGTKLTVLGQPKAAPSVTLFPPSS
B8: YU100-D05 (scFv)
scFv: QVQLQQSGGGVVQPGRSLRLSCAASGFTFSSYGMHWVRQAPGKGLEWVAVISYDGSNKYYADSVKGRFTISRDNSKNTLYLQMNSLRAEDTAVYYCAKIGATDPLDYWGQGTLVTVSSGSASAPKLEEGEFSEARVQSALTQPASVSGSPGQLITISCTGTNSDVGGYNYVSWYQQHPGKAPKLMIYDVSNRPSGVSNRFSGSKSGNTASLTISGLQAEDEADYYCCSYAGSYTWVFGGGTKLTVLGQPKAAPSVTLFPPSS
B9: YU100-E04 (scFv)
scFv: QVQLQQSGGGVVQPGRSLRLSCAASGFTFSSYGMHWVRQAPGKGLEWVAVISYDGSNKYYADSVKGRFTISRDNSKNTLYLQMNSLRAEDTAVYYCAKIGATDPLDYWGQGTLVTVSSGSASAPKLEEGEFSEARVQSALTQPRSVSGSPGQSVTISCTGTSSDVGGYNYVSWYQQHPGKTPKLMIYDVTKRPSGVPDHFSGSKSGNTASLTISGLQAEDEADYYCCSYAGSHIWVFGGGTKLTVLGQPKAAPSVTLFPPSS
B10: YU100-D02 (scFv)
scFv: QVRLVQSGGGVVQPGRSLRLSCAASGFTFSSYGMHWVRQAPGKGLEWVAVISYDGSNKYYADSVKGRFTISRDNSKNTLYLQMNSLRAEDTAVYYCAKIGATDPLDYWGQGTLVTVSSGSASAPKLEEGEFSEARVQSALTQPRSVSGSPGQSVTISCTGTSGDVGTYNYVSWYQQHPGKAPKLMIFDVSKRPSGVPDRFSGSKSGNTASLTISGLQAEDEADYYCNSYAGSYTWVFGGGTKLTVLGQPKAAPSVTLFPPSS
B11: YU45-G1 (Fc fusion)
VH: EVQLLESGGGVVQPGRSLRLSCAASGFTFSSYGMHWVRQAPGKGLEWVAVISYDGSNKYYADSVKGRFTISRDNSKNTLYLQMNSLRAEDTAVYYCAKLSGPNGVDYWGQGTLVTVSS
VL: QSALTQPRSVSGSPGQSVTISCTGTSSDVGGYNYVSWYQQHPGKAPKLMIYDVSKRPSGVPDRFSGSKSGNTASLTVSGLQAEDEADYYCCSYAGSYTFVFGGGTKLTVL
notes: tested as scFv-Fc (human IgG1); also called #11
B12: YU46-E3 (Fc fusion, not shown: a dimerising Fc or GST; small tags and cut ends)
VH: QVQLVESGGGVVQPGRSLRLSCAASGFTFSSYGMHWVRQAPGKGLEWVAVISYDGSNKYYADSVKGRFTISRDNSKNTLYLQMNSLRAEDTAVYYCARIGGYDDFDYWGQGTLVTVSS
VL: QSALTQPASVSGSPGQSITISCTGTSSDVGGYNYVSWYQQHPGKAPKLMIYDVSNRPSGVSNRFSGSKSGNTASLTISGLQAEDEADYYCSSYTSSSTWVFGGGTKLTVL
notes: tested as scFv-Fc (human IgG1); also called #50
B13: YU45-B6 (Fc fusion)
VH: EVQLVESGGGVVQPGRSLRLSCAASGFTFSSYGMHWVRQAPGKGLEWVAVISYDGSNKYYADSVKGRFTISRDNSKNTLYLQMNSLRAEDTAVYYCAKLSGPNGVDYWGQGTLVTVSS
VL: QSALTQPRSVSGSPGQSVTISCTGTSRDVGGYNYVSWYQQHPGEAPKLMIFDVSKRPSGVPDRFSGSKSGNTASLTISGLQAEDEADYYCCSYADYYTWVFGGGTKVTVL
notes: tested as scFv-Fc (human IgG1); also called #36
B14: YU45-A8/C6 (Fc fusion)
VH: QVQLVESGGGVVQPGRSLRLSCAASGFTFSSYGMHWVRQAPGKGLEWVAVISYDGSNKYYADSVKGRFTISRDNSKNTLYLQMNSLRAEDTAVYYCAKLSGPNGVDYWGQGTLVTVSS
VL: QSALTQPASVSGSPGQSITISCTGTSSDVGGYNYVSWYQQHPGKAPKLMIYDVGNRPSGVSNRFSGSKSGNTASLTISGLQAEDEADYYCSSYTSGSTWVFGGGTKLTVL
notes: tested as scFv-Fc (human IgG1); also called #27
B15: YU45-C11/A10 (Fc fusion)
VH: EVQLLESGGGVVQPGRSLRLSCAASGFTFSSYAMHWVRQAPGEGLEWVAVISYDGSNKYYADSVKGRFTISRDNAKDSLYLQMNSLRDEDTAVYYCARRGYFDYWGQGTLVTVSS
VL: QSALTQPASVSGSPGQSITISCTGTSSDVGGYNYVSWYQQHPGKAPKLMIYDVSNRPSGVSNRFSGSKSGNTASLTISGLQAEDEADYYCSSYTSSSTVVFGGGTKLTVL
notes: tested as scFv-Fc (human IgG1); also called #6
B16: YU45-H11/D12 (Fc fusion)
VH: EVQLLESGGGVVQPGRSRRLSCAASGFTFSSYGMHWVRQAPGKGLEWVAVISYDGSNKYYADSVKGRFTISRDNSKNTLYLQMNSLRAEDTAVYYCAKLYSGSSNFDYWGQGTLVTVSS
VL: QSALTQPASVSGSPGQSITISCTGTSSDVGGYNYVSWYQQHPGKAPKLMIYDVSNRPSGVSNRFSGSKSGNTASLTISGLQAEDEADYYCSSYTSSSTWVFGGGTKLTVL
notes: tested as scFv-Fc (human IgG1); also called #9
B17: YU45-H3 (Fc fusion)
VH: EVQLVESGGGVVQPGRSLRLSCAASGFTFSSYAMHWVRQAPGKGLEWVAVISYDGSNKYYADSVKGRLTISRDNSKNTLYLQMNSLRAEDTAVYYCARMVNLYYGDAFDIWGQGTMVTVSS
VL: QSALTQPASVSGSPGQSITISCTGTSSDVGGYNYVSWYQQHPGKAPKLMIYDVSNRPSGVSNRFSGSKSGNTASLTISGLQAEDEADYYCSSYTSSSTVVFGGGTKLTVL
notes: tested as scFv-Fc (human IgG1); also called #25
B18: YU45-H10 (Fc fusion)
VH: EVQLLESGGGVVQPGRSRRLSCAASGFSLNSYGMHWVRQAPGKGLEWVAVISYDGSNKYYADSVKGRFTISRDNSKNTLYLQMNSLRAEDTAVYYCAKLYSGSSNFDYWGQGTLVTVSS
VL: QSALTQPASVSGSPGQSITISCTGTSSDVGGYNYVSWYQQHPGKAPKLMIYDVSNRPSGVSNRFSGSKSGNTASLTISGLQAEDEADYYCSSYTSSSTWVFGGGTKLTVL
notes: tested as scFv-Fc (human IgG1); also called #22

Each binder was assayed against T1, human IL-11 (assay: cell-based or functional assay).
B1 was tested, and the “MMP2 production (ng/ml), TGFB1-stimulated human atrial fibroblasts, Experiment 1 (NEG 42.7, POS 70.2)” value (from here on “MMP2 production (ng/ml) … (NEG 42.7, POS 70.2)”) was 53.5 ng/mL and the “MMP2 production (ng/ml), TGFB1-stimulated human atrial fibroblasts, Experiment 2 (NEG 36.2, POS 62.3)” value (“MMP2 production (ng/ml) … (NEG 36.2, POS 62.3)” for short) was 49.1 ng/mL.
B2 was tested, and the “MMP2 production (ng/ml) … (NEG 42.7, POS 70.2)” value was 55.3 ng/mL and the “MMP2 production (ng/ml) … (NEG 36.2, POS 62.3)” value was 40.6 ng/mL.
B3 was tested, and the “MMP2 production (ng/ml) … (NEG 42.7, POS 70.2)” value was 54.1 ng/mL and the “MMP2 production (ng/ml) … (NEG 36.2, POS 62.3)” value was 48.2 ng/mL.
With B4 the “MMP2 production (ng/ml) … (NEG 42.7, POS 70.2)” value was 52.1 ng/mL and the “MMP2 production (ng/ml) … (NEG 36.2, POS 62.3)” value was 50.1 ng/mL.
With B5 the “MMP2 production (ng/ml) … (NEG 42.7, POS 70.2)” value was 59.3 ng/mL and the “MMP2 production (ng/ml) … (NEG 36.2, POS 62.3)” value was 51.8 ng/mL.
B6 was tested, and the “MMP2 production (ng/ml) … (NEG 42.7, POS 70.2)” value was 56.3 ng/mL and the “MMP2 production (ng/ml) … (NEG 36.2, POS 62.3)” value was 50.2 ng/mL.
In the case of B7, the “MMP2 production (ng/ml) … (NEG 42.7, POS 70.2)” value is reported as 51.2 ng/mL and the “MMP2 production (ng/ml) … (NEG 36.2, POS 62.3)” value is reported as 47.2 ng/mL.
With B8 the “MMP2 production (ng/ml) … (NEG 42.7, POS 70.2)” value was 53.3 ng/mL and the “MMP2 production (ng/ml) … (NEG 36.2, POS 62.3)” value was 48.8 ng/mL.
With B9 the “MMP2 production (ng/ml) … (NEG 42.7, POS 70.2)” value was 50 ng/mL and the “MMP2 production (ng/ml) … (NEG 36.2, POS 62.3)” value was 43.5 ng/mL.
For B10, the “MMP2 production (ng/ml) … (NEG 42.7, POS 70.2)” value was 49.6 ng/mL and the “MMP2 production (ng/ml) … (NEG 36.2, POS 62.3)” value was 42.2 ng/mL.

The binders below were run against T1, human IL-11 (assay: EC50 from the indirect ELISA titrations of FIGS. 28A-28F on plate-coated recombinant human IL-11 (five-parameter fit), ng/ml is the concentration unit of FIG. 28 and paragraph 502).
In the case of B11, the EC50 is reported as 0.0428 µg/mL.
For B12, the EC50 was 0.707 µg/mL.
Work on B13 yielded an EC50 of 4.98 µg/mL.
B14 showed an EC50 of 0.71 µg/mL.
Binder B15 has an EC50 of 0.0677 µg/mL.
For B16, the EC50 was 0.0146 µg/mL.
B17 showed an EC50 of 0.126 µg/mL.
B18 was tested, and the EC50 was 0.0248 µg/mL.
